Reference: FireProtDB (doi:10.1016/0003-9861(92)90047-z)

B1: Tryptophan synthase alpha chain, P0A877 (parent)
chain: MERYESLFAQLKERKEGAFVPFVTLGDPGIEQSLKIIDTLIEAGADALELGIPFSDPLADGPTIQNATLRAFAAGVTPAQCFEMLALIRQKHPTIPIGLLMYANLVFNKGIDEFYAQCEKVGVDSVLVADVPVEESAPFRQAALRHNVAPIFICPPNADDDLLRQIASYGRGYTYLLSRAGVTGAENRAALPLNHLVAKLKEYNAAPPLQGFGISAPDQVKAAIDAGAAGAISGSAIVKIIEQHINEPEKMLAALKVFVQPMKAATRS

Variants of: B1
Conditions: Escherichia coli (strain K12); pH 7.2; Thermal; DSC; Sodium phosphate 1 mM; reversible: yes; structure 1WQ5; whole UniProt chain shown

Variant | Tm | change of melting temperature, mutant - wild type (higher = more stable)
P28L | 54.9 °C | -4.6 °C
T63K | 56.2 °C | -3.3 °C
D112N | 56.4 °C | -3.1 °C
P78S | 57.9 °C | -1.6 °C
S33L | 51.9 °C | -7.6 °C
P78L | 61.4 °C | 1.9 °C
F114L | 56.2 °C | -3.3 °C
S6P | 54.3 °C | -5.2 °C
E49G | 57.7 °C | -1.8 °C
M101I | 63.2 °C | 3.7 °C
Y115C | 57.2 °C | -2.3 °C
D112G | 54.4 °C | -5.1 °C
M101T | 67.1 °C | 7.6 °C
F22S | 60.3 °C | 0.8 °C
P62Q | 58.9 °C | -0.6 °C
P53H | 56.2 °C | -3.3 °C
P53T | 55.2 °C | -4.3 °C
D60G | 56.9 °C | -2.6 °C
A67V | 56.8 °C | -2.7 °C
T24M | 61.8 °C | 2.3 °C
P21S | 55.2 °C | -4.3 °C
D56G | 57.5 °C | -2 °C
Q65R | 58.9 °C | -0.6 °C
Y102H | 60.3 °C | 0.8 °C
M101V | 67.1 °C | 7.6 °C
Y102C | 60.9 °C | 1.4 °C
G51D | 55 °C | -4.5 °C
